Three molecules from US20200317768A1 (published 2020) can be followed below.

Where a chain is given by its changes, count along the chain named. Names may count otherwise.

Sequences and labels used below:
T1: human FcγRIIaH extracellular domain, C-terminal His-tag (human, UniProt P12318 34-217)
T1 construct: also called human FcγRIIa (type H); FcgRIIaH; not shown: His-tag added to the C-terminus
T1 sequence: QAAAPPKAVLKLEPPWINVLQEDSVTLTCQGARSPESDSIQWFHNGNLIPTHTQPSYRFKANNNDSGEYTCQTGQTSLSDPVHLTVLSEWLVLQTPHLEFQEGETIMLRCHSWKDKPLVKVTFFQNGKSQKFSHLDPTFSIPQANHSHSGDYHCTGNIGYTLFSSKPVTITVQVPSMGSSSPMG

T2: cynomolgus monkey FcγRIIa2 extracellular domain, C-terminal His-tag (cynomolgus monkey)
T2 construct: also called cyno FcγRIIa2; FcgRIIa2; not shown: His-tag added to the C-terminus
T2 chain: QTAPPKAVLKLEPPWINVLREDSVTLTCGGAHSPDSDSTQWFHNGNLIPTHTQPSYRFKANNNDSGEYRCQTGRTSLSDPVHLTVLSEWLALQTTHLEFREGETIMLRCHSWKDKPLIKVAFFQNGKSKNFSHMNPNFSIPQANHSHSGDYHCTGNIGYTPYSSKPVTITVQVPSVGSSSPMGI

T3: cynomolgus monkey FcγRIIa1 extracellular domain, C-terminal His-tag (cynomolgus monkey)
T3 construct: also called cyno FcγRIIa1; FcgRIIa1; not shown: His-tag added to the C-terminus
T3 chain: T2 chain with T95P, A121T, K127I, S128A, N130K, N135D, Q142R

T4: human FcγRIIb extracellular domain, C-terminal His-tag (human, UniProt P31994 43-217)
T4 construct: also called FcgRIIb; not shown: His-tag added to the C-terminus
T4 sequence: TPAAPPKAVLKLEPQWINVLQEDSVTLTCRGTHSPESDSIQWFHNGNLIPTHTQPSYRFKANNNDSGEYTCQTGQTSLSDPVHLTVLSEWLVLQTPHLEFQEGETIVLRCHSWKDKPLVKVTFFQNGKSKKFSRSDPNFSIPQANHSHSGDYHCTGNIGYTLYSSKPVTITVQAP

T5: human FcγRIIaR extracellular domain, C-terminal His-tag (human, UniProt P12318 34-217)
T5 construct: also called human FcγRIIa (type R); FcgRIIaR; not shown: His-tag added to the C-terminus
T5 chain: T1 sequence with H134R

T6: cynomolgus monkey FcγRIIa3 extracellular domain, C-terminal His-tag (cynomolgus monkey)
T6 construct: also called cyno FcγRIIa3; FcgRIIa3; not shown: His-tag added to the C-terminus
T6 chain: T2 chain with K127I, N130K, H133P, Q142R

B1: MS1032LO06-PK55 (M103205H795-PK55/M103202L889-SK1) (antibody, human IgG1, kappa)
heavy: QVTLKESGPVLVKPTETLTLTCTVSGIDLSHDDISWVRQAPGKGLEWVGIISYAGSTYYASWAKGRLTISKDTSKNQVVLTMTNMDPVDTATYYCARGVPAYSHGGDLWGQGTLVTVSSASTKGPSVFPLAPSSKSTSGGTAALGCLVKDYFPEPVTVSWNSGALTSGVHTFPAVLQSSGLYSLSSVVTVPSSSLGTQTYICNVNHKPSNTKVDKKVEPKSCDKTHTCPPCPAPELLNGPSVFLFPPKPKDTLMISRTPEVTCVVVDVSDEDPEVKFNWYVDGVEVHNAKTKPREEQYNSTYRVVSVLTVLHRDWLNGKEYKCKVSNKALPKPIEKTISKAKGQRREPQVYTLPPSREEMTKNQVSLTCLVKGFYPSDIAVEWESNGQPENNYKTTPPVLDSDGSFFLYSKLTVDKSRWQQGNVFSCSVMHEALHNHYTQKSLSLSP
light: DIVMTQSPATLSLSPGERATLSCTSSQSVYHANWLSWFQQKPGQPPKLLIYWASTLAYGVPSRFSGSGSGTDFTLTISSLQPEDAATYYCAGGYGGGRYAFGQGTKVEIKRTVAAPSVFIFPPSDEQLKSGTASVVCLLNNFYPREAKVQWKVDNALQSGNSQESVTEQDSKDSTYSLSSTLTLSKADYEKHKVYACEVTHQGLSSPVTKSFNRGEC
notes: CH PK55 = SG1 with G236N/H268D/Q311R/A330K/P343R (EU numbering); also called MS103205H795-PK55
B2: MS1032LO06-PK57 (M103205H795-PK57/M103202L889-SK1) (antibody, human IgG1, kappa)
heavy: B1 heavy with R345P, N386R, D415R
light: B1 light
notes: CH PK57 = SG1 with G236N/H268D/Q311R/A330K/N384R/D413R (EU numbering); also called MS103205H795-PK57
B3: MS1032LO06-PK56 (M103205H795-PK56/M103202L889-SK1) (antibody, human IgG1, kappa)
heavy: B1 heavy with D415R
light: B1 light
notes: CH PK56 = SG1 with G236N/H268D/Q311R/A330K/P343R/D413R (EU numbering); also called MS103205H795-PK56

One test addresses T1, human FcγRIIaH extracellular domain, …. Put plainly: SPR (BIACORE), antibody captured, soluble FcgR as analyte, 25C. As to the method: (§1) The kinetic analysis of interactions between these antibodies and FcγR was carried out using BIACORE® T200 or BIACORE® 4000 (GE Healthcare). HBS-EP+ (GE Healthcare) was used as the running buffer, and the measurement temperature was set to 25° C. A chip produced by immobilizing Protein A. Protein A/G or mouse anti-human IgG kappa light chain (BD Biosciences) onto a Series S Sensor Chip CM4 or CM5 (GE Healthcare) by the amine-coupling method was used. […] After the measurement, the antibody captured on the chip was washed off by allowing reaction with 10 mM glycine-HCl, pH1.5 and 25 mM NaOH so that the chip was regenerated and used repeatedly. The sensorgrams obtained as measurement results were analyzed by the 1:1 Langmuir binding model using the BIACORE® Evaluation Software to calculate the binding rate constant ka (L/mol/s) and dissociation rate constant kd (l/s), and the dissociation constant KD (mol/L) was calculated from these values. […] Regarding such interactions, KD values were calculated using the following 1:1 binding model described in BIACORE® T100 Software Handbook BR1006-48 Edition AE.
(§2) The behavior of interacting molecules according to the 1:1 binding model on BIACORE® can be described by Equation 1: Req=C·R max/(KD+C)+RI, wherein, Req is a plot of steady-state binding levels to analyte concentration. C is concentration, RI is bulk refractive index contribution in the sample, and Rmax is analyte binding capacity of the surface. When this equation is rearranged, KD can be expressed as Equation 2: KD=C·Rmax/(Req−RI)−C. KD can be calculated by substituting the values of Rmax, RI, and C into Equation 1 or Equation 2. From the current measurement conditions, RI=0, C=2 μmol/L can be used.
Background: Surface plasmon resonance follows binding to a sensor surface in real time, without labels.
The Kd is a measure of binding affinity in units of concentration. B1 had a Kd of 830 nM.

Turning to B2, the equilibrium dissociation constant (Kd) amounted to 1300 nM.

Turning to B3, binding was put at a Kd of 1200 nM.

A further test deals with T2, cynomolgus monkey FcγRIIa2 …. Described as above. The procedure:
as §1, §2
Take B1: the Kd came out at 1200 nM.

B2: the Kd was 1700 nM.

B3 displayed a Kd of 1500 nM.

The target of a further test is T7, cynomolgus monkey FcγRIIIaS extracellular domain, C-terminal His-tag (cynomolgus monkey, UniProt A3RFZ7 21-206 (rhesus entry)).
T7 construct: also called cyno FcγRIIIaS; FcgRIIIaS; not shown: His-tag added to the C-terminus
T7 sequence (A3RFZ7 21-206): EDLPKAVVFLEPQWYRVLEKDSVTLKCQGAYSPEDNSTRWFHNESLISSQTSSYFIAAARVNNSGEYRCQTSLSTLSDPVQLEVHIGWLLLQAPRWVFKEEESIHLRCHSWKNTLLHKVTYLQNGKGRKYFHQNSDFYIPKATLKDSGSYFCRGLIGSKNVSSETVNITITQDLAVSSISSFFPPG
The description is as above. As to the method:
as §1, §2
B1 had a Kd of 3.3 µM.

The molecule B2 had a Kd of 4.3 µM.

The molecule B3 displayed a Kd of 4.4 µM.

The target of a further test is T3, cynomolgus monkey FcγRIIa1 …. The description is as above. As to the method:
as §1, §2
As to B1, binding was characterised by a dissociation constant (Kd) of 1400 nM.

In turn, B2 registered a Kd of 1900 nM.

With B3, the Kd worked out at 1800 nM.

The next test concerns the target T4, human FcγRIIb extracellular domain, …. The description is as above. As to the method: as §1, §2
Consider B1, for which the Kd is 760 nM.

In turn, B2 yielded a Kd of 1200 nM.

The molecule B3 showed a Kd of 1000 nM.

For the next test, the target named is T8, human FcγRIIIaV extracellular domain, C-terminal His-tag (human, UniProt P08637 17-208).
T8 construct: also called FcgRIIIaV; not shown: His-tag added to the C-terminus
T8 sequence (P08637 17-208 F176V): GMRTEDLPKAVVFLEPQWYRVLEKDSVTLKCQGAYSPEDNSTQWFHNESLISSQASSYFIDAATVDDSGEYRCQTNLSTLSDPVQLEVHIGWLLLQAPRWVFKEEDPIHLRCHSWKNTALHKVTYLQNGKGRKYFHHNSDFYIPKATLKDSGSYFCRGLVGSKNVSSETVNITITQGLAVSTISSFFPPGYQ
Described as above. As to the method:
as §1, §2
In turn, B1 came in with a Kd of 13 µM.

B2 displayed a Kd of 23 µM.

With B3, the Kd was found to be 10 µM.

A further test addresses T5, human FcγRIIaR extracellular domain, …. The description is as above. As to the method: as §1, §2
For the molecule B1, binding was put at a Kd of 1500 nM.

For B2, the affinity, expressed as Kd, was 2200 nM.

Consider B3, for which the dissociation constant (Kd) worked out at 1900 nM.

For another test, the target named is T6, cynomolgus monkey FcγRIIa3 …. Put plainly: SPR; KD of SG1 divided by KD of variant.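 Note: relative to parent M103205H795-SG1 carrying the SG1 human heavy chain constant region.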 The procedure: as §1
As to B1, the “KD fold (SG1 = 1)” value was 4.3 fold.

With B2, the “KD fold (SG1 = 1)” value was 2.7 fold.

Consider B3, for which the “KD fold (SG1 = 1)” value worked out at 3.5 fold.
